Results reported in patent US10155792B2, “Albumin binding polypeptide” (priority 2012, dated 2018).
Read-outs that look alike come from different tables or passages of the source. Where no end group is shown, it is not given here.

Legend:
[1] = Circular dichroism analysis, variable temperature measurement; assay type: physicochemical
Procedure: Secondary structure of ABD variants was analyzed by circular dichroism (CD) spectroscopy using a scan from 195-250 nm before and after the variable temperature measurement (see below). Purified albumin binding polypeptide variants were diluted in 1×PBS, to final concentration of 0.5 mg/ml. Circular dichroism (CD) analysis was performed on a Jasco J-810 spectropolarimeter in a cell with an optical path-length of 1 mm. Alpha helical proteins show typical minima at 208 and 222 nm.
Variable temperature measurement was used to determine the melting temperature, Tm. In these measurements, the absorbance was measured at 221 nm from 20° C. to 90° C., with a temperature slope of 5° C./min.
The melting temperatures of the ABD variants were calculated by determining the midpoint of the transtition in the CD vs. temperature plot.
The CD spectra before and after heat treatment were compared in order to detect potential heat denaturation of the proteins. […] FIGS. 2A and 2B show the CD spectra of the new ABD variants and of PEP07843 (SEQ ID NO:27) for comparison.

[2] = target: T1, clostripain (Hathewaya histolytica, UniProt P09870); assay: Clostripain cleavage, SDS-PAGE analysis; assay type: in vitro ADME, Clostridium histolyticum; conditions: 5 U clostripain/mg
T1 construct: is a two-chain proteinase that can be isolated from Clostridium histolyticum; purchased Worthington LS001641
T1 sequence (P09870 191-526): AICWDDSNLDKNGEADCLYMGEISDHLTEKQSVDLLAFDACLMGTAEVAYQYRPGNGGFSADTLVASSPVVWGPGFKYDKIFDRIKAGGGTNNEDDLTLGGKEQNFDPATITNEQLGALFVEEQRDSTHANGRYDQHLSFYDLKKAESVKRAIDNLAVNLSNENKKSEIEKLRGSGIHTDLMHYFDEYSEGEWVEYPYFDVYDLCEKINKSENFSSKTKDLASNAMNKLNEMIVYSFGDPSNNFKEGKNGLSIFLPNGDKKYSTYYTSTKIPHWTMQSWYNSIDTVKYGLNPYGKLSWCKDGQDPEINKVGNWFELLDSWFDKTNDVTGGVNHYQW
T1 sequence (P09870 51-181): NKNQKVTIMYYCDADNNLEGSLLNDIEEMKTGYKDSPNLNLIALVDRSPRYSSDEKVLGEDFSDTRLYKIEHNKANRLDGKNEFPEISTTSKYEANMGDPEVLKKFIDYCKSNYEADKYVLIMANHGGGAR
Procedure: (§1) Enzymatic digestion of PEP07843 and the three new variants was performed using clostripain from Worthington (No. LS001641) in 25 mM NaPi buffer pH 7.6, 150 mM NaCl, 1 mM CaAc, 2.5 mM DTT. Clostripain was dissolved freshly before initiation of the experiment.
(§2) In the following experiment, the clostripain amount was increased to 5 U/mg ABD variant, and the samples were incubated for 0, 1, 2, 4, 6, 8 and 22 h at 25° C. in a thermomixer with mild shaking at 600 rpm.
(§3) Reactions were stopped by addition of 4×SDS sample buffer followed by incubation for 15 min at 70° C. (for SDS PAGE analysis) or by addition of trifluoroacetic acid (TFA) to a final concentration of 0.3%, which lowers the pH to approximately 2, and freezing at −80° C. (for LC/MS analysis).
(§4) Controls were reactions without clostripain and omitting DTT which […] clostripain activity.
(§5) Analysis of samples incubated with clostripain for up to 22 h was performed by SDS-PAGE using NuPAGE 4-12% gels from Invitrogen (see FIG. 3). In FIG. 3, lane S indicates sharp molecular weight marker standard (molecular weights 3.5, 10, 15, 20, 30, 40, 50, 60, 80, 110 and 160 kDa), lane B indicates a blank sample with clostripain but no ABD variant, and lanes 0-22 indicate ABD variant samples taken at the indicated incubation times in hours.

[3] = system: T2, clostripain; assay: Clostripain cleavage, SDS-PAGE analysis; assay type: in vitro ADME, Clostridium histolyticum; conditions: Clostridium histolyticum, clostripain (isolated protease), pH 7.6, 5 U clostripain/mg, 25° C.; for metabolised at 22 h: read-out: cleaved after 22 h
T2 construct: is a two-chain proteinase that can be isolated from Clostridium histolyticum; purchased Worthington LS001641
Procedure: as §1, §2, §3, §4, §5

[4] = target: T1, clostripain; assay: Clostripain cleavage, LC/MS analysis; assay type: in vitro ADME, Clostridium histolyticum
Procedure: as §1
(§6) In the first experiment, 0.2 U clostripain/mg ABD variant was incubated for up to 20 h at 25° C., but only a low level of cleavage was detected by SDS-PAGE and LC/MS analysis.
as §2, §3
(§7) LC/MS analyses were performed using an Agilent 1100 LC/MSD system, equipped with API-ESI and a single quadruple mass analyzer. 10 μl of each cleavage mixture was injected on a Zorbax 300SB-C8 Narrow-Bore column (2.1×150 mm, 3.5 μm, Agilent Technologies) at a flow-rate of 0.5 ml/min. Elution was performed using a linear gradient of 10-70% solution B for 15 min at 0.5 ml/min. The separation was performed at 30° C. The ion signal and the absorbance at 280 and 220 nm were monitored.
(§8) FIGS. 4 and 5 show the LC/MS analysis of ABD variant samples incubated for up to 20 h with 0.2 U and up to 22 h with 5 U respectively of clostripain per mg ABD variant. The main peak was integrated, and the area transformed to % of remaining intact ABD variant at t=0.
(§9) The main peak was integrated and the area transformed to % of remaining intact ABD at t=0. The LC/MS analysis described above was used for analysis.

[5] = system: T2, clostripain; assay: Clostripain cleavage, LC/MS analysis; assay type: in vitro ADME, Clostridium histolyticum; conditions: Clostridium histolyticum, clostripain (isolated protease), read-out: remaining % ABD variant; for remaining at 0.25 h: 15 min; for remaining at 0.5 h: 30 min; for remaining at 20 h: 1200 min
Procedure: as §1, §6, §2, §3, §7, §8, §9

[6] = target: T3, cynomolgus serum albumin (CSA) (Macaca fascicularis, UniProt A2V9Z4); assay: Biacore analysis of binding to CSA; conditions: CSA immobilized, Biacore2000; relative KD only
T3 construct: CSA (purified in-house from cynomolgus serum); from tissue; host or cells: cynomolgus serum
T3 sequence (A2V9Z4 25-608): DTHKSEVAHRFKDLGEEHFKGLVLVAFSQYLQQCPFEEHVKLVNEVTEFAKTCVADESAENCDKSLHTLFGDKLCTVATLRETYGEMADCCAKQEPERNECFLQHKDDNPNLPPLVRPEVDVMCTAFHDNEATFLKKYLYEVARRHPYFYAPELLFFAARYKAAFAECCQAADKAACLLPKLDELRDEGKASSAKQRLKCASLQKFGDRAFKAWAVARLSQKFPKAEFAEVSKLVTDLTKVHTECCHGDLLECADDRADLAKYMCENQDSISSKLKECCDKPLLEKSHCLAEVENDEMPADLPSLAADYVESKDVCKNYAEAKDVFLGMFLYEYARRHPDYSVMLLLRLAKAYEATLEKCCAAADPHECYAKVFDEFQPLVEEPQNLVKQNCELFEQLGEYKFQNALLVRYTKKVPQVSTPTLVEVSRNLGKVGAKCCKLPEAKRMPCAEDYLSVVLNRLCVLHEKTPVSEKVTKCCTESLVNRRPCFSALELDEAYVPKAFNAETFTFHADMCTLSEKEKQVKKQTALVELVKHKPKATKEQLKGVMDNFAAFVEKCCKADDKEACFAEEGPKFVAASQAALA

[7] = target: human serum albumin (HSA) (Homo sapiens, UniProt P02768); assay: biochemical
human serum albumin (HSA), sequence (P02768 25-609): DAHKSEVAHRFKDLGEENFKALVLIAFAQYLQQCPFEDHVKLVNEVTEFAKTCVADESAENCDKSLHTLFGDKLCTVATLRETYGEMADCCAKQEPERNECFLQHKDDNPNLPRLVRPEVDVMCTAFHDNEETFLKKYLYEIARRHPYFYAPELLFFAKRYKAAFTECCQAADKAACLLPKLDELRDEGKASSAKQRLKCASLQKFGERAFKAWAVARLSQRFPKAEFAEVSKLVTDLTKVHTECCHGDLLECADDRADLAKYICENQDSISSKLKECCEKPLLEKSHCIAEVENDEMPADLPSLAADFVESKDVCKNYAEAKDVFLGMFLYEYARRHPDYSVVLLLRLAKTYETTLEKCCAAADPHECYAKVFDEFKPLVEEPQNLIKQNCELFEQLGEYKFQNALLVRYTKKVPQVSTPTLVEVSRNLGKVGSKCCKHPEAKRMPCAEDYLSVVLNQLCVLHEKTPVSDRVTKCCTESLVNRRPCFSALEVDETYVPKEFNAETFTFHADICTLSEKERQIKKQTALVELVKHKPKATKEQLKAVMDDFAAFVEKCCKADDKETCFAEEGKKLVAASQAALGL
Procedure: Biosensor analysis on a Biacore2000 instrument (GE Healthcare) was performed with HSA (Albucult®, Novozymes), CSA (purified in-house from cynomolgus serum), RSA (Sigma-Aldrich, Cat. No. A6272) and MSA (Sigma-Aldrich, Cat. No. A3559) immobilized by amine coupling onto the carboxylated dextran layer of the surfaces of CM-5 chips (research grade; GE Healthcare) according to the manufacturer's recommendations.
ABD variants were used as analytes and were injected in duplicates over the chip at three analyte concentrations (2.5, 10 and 40 nM). The association phase was 5 min followed by a long dissociation phase (60 min) to account at least partially for the slow off-rate of the ABD variants. […] Therefore, all KD's are given as relative KD values only.
The results were analyzed with BiaEvaluation software (GE Healthcare). Curves of the blank surface and buffer injection were subtracted from the curves of the ligand surfaces.
The Biacore 2000 instrument has a technical limitation which hinders measurements of very high affinity. […] After subtraction of reference surface and buffer injection, curves were fitted to a 1:1 (Langmuir) binding model using BIAevaluation software with correction for mass transfer and with RUmax set as a local parameter.

[8] = pH 7.6, 0.2 U clostripain/mg, 120 min
[9] = pH 7.6, 5 U clostripain/mg, 2 h

For “GSSLAEAKEAANAELDSYGVSDFYKKLIDKAKTVEGVEALKDAILAALP [PEP12380]”, the “thermal stability, comparison of variants” value [1] was “highest thermal stability of the three variants”, the “resistance to clostripain cleavage, comparison” value (“resistance” for short) [2] was “highest level of resistance to cleavage” and the “incubation time at which some cleavage was seen” value (shortened to “incubation time”) ([2]; 25° C.) was 6 to 8 h. The “cleaved after 22 h” value ([2]; 25° C.) was ~50%, the metabolised at 22 h [3] was ~50% and the “remaining % ABD variant” value ([4]; 0.2 U clostripain/mg, 0 min) was 100%. The “remaining % ABD variant” value ([4]; 5 U clostripain/mg, 0 h) was 100%, the “protease stability, comparison” value ([4]; as compared to PEP12379, PEP12381 and PEP07843) was “superior properties with respect to protease stability” and the “increase of degradation products over time, comparison” value ([4]; both low and high clostripain concentrations) was “lowest increase of degradation products over time”. For the same sequence, the remaining at 2 min ([5]; pH 7.6, 0.2 U clostripain/mg) was 100%, the remaining at 5 min ([5]; pH 7.6, 0.2 U clostripain/mg) was 101% and the remaining at 0.25 h ([5]; pH 7.6, 0.2 U clostripain/mg) was 101%. The remaining at 0.5 h ([5]; pH 7.6, 0.2 U clostripain/mg) was 101%, the remaining at 2 h [5, 8] was 100% and the remaining at 20 h ([5]; pH 7.6, 0.2 U clostripain/mg) was 100%. The remaining at 1 h ([5]; pH 7.6, 5 U clostripain/mg) was 96%, the remaining at 2 h [5, 9] was 93% and the remaining at 4 h ([5]; pH 7.6, 5 U clostripain/mg) was 84%. The remaining at 6 h ([5]; pH 7.6, 5 U clostripain/mg) was 77%, the remaining at 8 h ([5]; pH 7.6, 5 U clostripain/mg) was 69% and the remaining at 22 h ([5]; pH 7.6, 5 U clostripain/mg) was 30%. The Kd [6] was 11 pM and the Kd [7] was 7.5 pM.
With “GSSLAEAKEAANAELDSYGVSDFYKNLIDKAKTVEGVEALKDAILAALP [PEP12379]” the “resistance” value [2] was “more resistant to clostripain cleavage as compared to PEP07843”, the “incubation time” value ([2]; 25° C.) was 4 to 8 h and the “cleaved after 22 h” value ([2]; 25° C.) was ~90%. For the same sequence, the metabolised at 22 h [3] was ~90%, the “remaining % ABD variant” value ([4]; 0.2 U clostripain/mg, 0 min) was 100% and the “remaining % ABD variant” value ([4]; 5 U clostripain/mg, 0 h) was 100%. The remaining at 2 min ([5]; pH 7.6, 0.2 U clostripain/mg) was 100%, the remaining at 5 min ([5]; pH 7.6, 0.2 U clostripain/mg) was 101% and the remaining at 0.25 h ([5]; pH 7.6, 0.2 U clostripain/mg) was 101%. For the same sequence, the remaining at 0.5 h ([5]; pH 7.6, 0.2 U clostripain/mg) was 99%, the remaining at 2 h [5, 8] was 99% and the remaining at 20 h ([5]; pH 7.6, 0.2 U clostripain/mg) was 96%. For the same sequence, the remaining at 1 h ([5]; pH 7.6, 5 U clostripain/mg) was 92%, the remaining at 2 h [5, 9] was 85% and the remaining at 4 h ([5]; pH 7.6, 5 U clostripain/mg) was 71%. For the same sequence, the remaining at 6 h ([5]; pH 7.6, 5 U clostripain/mg) was 58%, the remaining at 8 h ([5]; pH 7.6, 5 U clostripain/mg) was 47% and the remaining at 22 h ([5]; pH 7.6, 5 U clostripain/mg) was 4%.
For “GSSLAEAKEAANAELDSYGVSDFYKRLIDKAKTVEGVEALKDAILAALP [PEP07843, reference compound]”, the “cleaved after 4-22 h” value ([2]; 25° C., 4-22 h) was 100%, the “cleaved after 2 h” value ([2]; 25° C., 2 h) was ~75% and the metabolised ([3]; 4-22 h, read-out: cleaved after 4-22 h) was 100%. For the same sequence, the metabolised at 2 h ([3]; 2 h, read-out: cleaved after 2 h) was ~75%, the “remaining % ABD variant” value ([4]; 0.2 U clostripain/mg, 0 min) was 100% and the “remaining % ABD variant” value ([4]; 0.2 U clostripain/mg, 120 min) was 94%. The “remaining % ABD variant” value ([4]; 5 U clostripain/mg, 0 h) was 100%, the “remaining % ABD variant” value ([4]; 5 U clostripain/mg, 2 h) was 15% and the remaining at 2 min ([5]; pH 7.6, 0.2 U clostripain/mg) was 100%. The remaining at 5 min ([5]; pH 7.6, 0.2 U clostripain/mg) was 101%, the remaining at 0.25 h ([5]; pH 7.6, 0.2 U clostripain/mg) was 100% and the remaining at 0.5 h ([5]; pH 7.6, 0.2 U clostripain/mg) was 100%. For the same sequence, the remaining at 20 h ([5]; pH 7.6, 0.2 U clostripain/mg) was 54%, the remaining at 1 h ([5]; pH 7.6, 5 U clostripain/mg) was 46% and the remaining at 4 h ([5]; pH 7.6, 5 U clostripain/mg) was 0%. For the same sequence, the remaining at 6 h ([5]; pH 7.6, 5 U clostripain/mg) was 0%, the remaining at 8 h ([5]; pH 7.6, 5 U clostripain/mg) was 0% and the remaining at 22 h ([5]; pH 7.6, 5 U clostripain/mg) was 0%. It also gave a Kd [6] of 9.8 pM and a Kd [7] of 6.7 pM.
With “GSSLAEAKEAANAELDSYGVSDFYKSLIDKAKTVEGVEALKDAILAALP [PEP12381]” the “resistance” value [2] was “more resistant to clostripain cleavage as compared to PEP07843”, the “incubation time” value ([2]; 25° C.) was 4 to 8 h and the “cleaved after 22 h” value ([2]; 25° C.) was ~100%. The metabolised at 22 h [3] was ~100%, the “remaining % ABD variant” value ([4]; 0.2 U clostripain/mg, 0 min) was 100% and the “remaining % ABD variant” value ([4]; 5 U clostripain/mg, 0 h) was 100%. It also gave a remaining at 2 min ([5]; pH 7.6, 0.2 U clostripain/mg) of 101%, a remaining at 5 min ([5]; pH 7.6, 0.2 U clostripain/mg) of 100% and a remaining at 0.25 h ([5]; pH 7.6, 0.2 U clostripain/mg) of 100%. For the same sequence, the remaining at 0.5 h ([5]; pH 7.6, 0.2 U clostripain/mg) was 100%, the remaining at 2 h [5, 8] was 99% and the remaining at 20 h ([5]; pH 7.6, 0.2 U clostripain/mg) was 97%. The remaining at 1 h ([5]; pH 7.6, 5 U clostripain/mg) was 91%, the remaining at 2 h [5, 9] was 79% and the remaining at 4 h ([5]; pH 7.6, 5 U clostripain/mg) was 60%. For the same sequence, the remaining at 6 h ([5]; pH 7.6, 5 U clostripain/mg) was 44%, the remaining at 8 h ([5]; pH 7.6, 5 U clostripain/mg) was 31% and the remaining at 22 h ([5]; pH 7.6, 5 U clostripain/mg) was 0%.
